In article PMC7367391, “EtMIC3 and its receptors BAG1 and ENDOUL are essential for site-specific invasion of Eimeria tenella in chickens” (Veterinary Research, 2020):

T1: pGEX-6P-1-EtMIC3 recombinant protein (E. tenella, UniProt B6VCV4 1-988)
T1 sequence (looked up): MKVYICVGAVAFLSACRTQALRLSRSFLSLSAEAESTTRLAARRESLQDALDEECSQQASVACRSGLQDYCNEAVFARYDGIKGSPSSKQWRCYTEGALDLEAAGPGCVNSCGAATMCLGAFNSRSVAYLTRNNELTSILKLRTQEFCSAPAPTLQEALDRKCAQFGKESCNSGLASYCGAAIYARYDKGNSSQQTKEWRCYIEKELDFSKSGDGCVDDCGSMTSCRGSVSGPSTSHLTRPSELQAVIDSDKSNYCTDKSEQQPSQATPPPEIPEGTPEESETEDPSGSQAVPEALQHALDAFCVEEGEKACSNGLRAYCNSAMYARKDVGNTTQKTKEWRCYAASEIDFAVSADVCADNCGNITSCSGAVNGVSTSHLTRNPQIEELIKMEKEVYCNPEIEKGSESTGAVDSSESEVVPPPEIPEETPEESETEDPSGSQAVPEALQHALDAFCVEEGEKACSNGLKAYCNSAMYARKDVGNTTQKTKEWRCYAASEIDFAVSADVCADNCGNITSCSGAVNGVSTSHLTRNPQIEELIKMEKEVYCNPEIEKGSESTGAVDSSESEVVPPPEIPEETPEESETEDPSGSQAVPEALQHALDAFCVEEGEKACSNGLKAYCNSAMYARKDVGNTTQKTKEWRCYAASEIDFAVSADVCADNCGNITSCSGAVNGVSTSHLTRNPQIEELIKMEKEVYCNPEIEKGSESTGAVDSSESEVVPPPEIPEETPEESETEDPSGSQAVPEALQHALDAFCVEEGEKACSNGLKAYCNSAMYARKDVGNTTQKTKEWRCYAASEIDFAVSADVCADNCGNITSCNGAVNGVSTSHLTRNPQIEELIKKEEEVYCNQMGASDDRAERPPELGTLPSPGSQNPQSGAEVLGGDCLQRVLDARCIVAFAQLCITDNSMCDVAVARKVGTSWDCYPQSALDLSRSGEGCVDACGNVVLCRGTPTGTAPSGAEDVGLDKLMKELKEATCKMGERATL

B1: recombinant BAG1 expressed from pET-32a-BAG1 (natural protein, chicken, UniProt F1NPL0 1-209, looked up)
chain: MAVPGAPVSVTVTYSNEKHNIQVASQQEDGEPTLQDMAVLIEQVTGVPVSFQKLIYKGKSLKELEQPLSALGVKNGCKVMLIGKRNSPEEEAELKKLKDLEKSVEQIANKLEEVNKEFTSIQKGFLAKDLQAEALKQLDKRIKGTAEQFMKILEQVDAINLPENFNDCRLKKKGLVKRVQAFLAQCDTVEGNIGQEMDKLQSKNLALAE
B2: recombinant ENDOUL expressed from pET-32a-ENDOUL (natural protein, chicken, UniProt A0A8V0YKR0 1-289, looked up)
chain: MADRKALNHELSKLFNEMWDMDVNRFTPGKDYAIELQGKADAVLQGDSVVQDSAARHLFHYVNEERLKNIKTFATFISLLDNYETSTGVEEIVTPEEIAENNCFLDAILMTGVMKLAHEYLLKKKLAKPNLADFKYQLYDIWFQLYPRKEGDRPDSCGFEHVFVGETRRGKQILGLHNWVQFYLQEKHKQIDYKGYIARKNKTRPDRDDQVLSIQFSWKGSVKPIGSTFIGVSPEFEFALYTVIFLLSEERVTRKTVKIEEYELQIVVCRHGRHIGTAYPVLLNTSNED

Target: T1, pGEX-6P-1-EtMIC3 recombinant protein
Assay: cell-based or functional assay

Binder | oocyst decrease ratio (%) in chickens challenged with 5 × 10^4 E. tenella sporulated oocysts and injected intravenously with anti-BAG1 serum every day for 7 days [%] | oocyst decrease ratio (%) in chickens challenged with 5 × 10^4 E. tenella sporulated oocysts and injected intravenously with anti-ENDOUL serum every day for 7 days [%]
B1 | 3.63 | 
B2 |  | 5.07
